In patent EP4491630A1, “T-CELL RECEPTOR FOR ACUTE MYELOID LEUKEMIA (AML)” (Universitetet I Oslo, priority 2023, dated 2025):
Values belong to the molecule of their own block, whether it stands above or below them. Ends that are not written are not given here.

Columns and labels:
TCR^FLT3D/Y cells = settings: 28 candidate 9mers from the human proteome pulsed on K562 cells
Description: TCR-transduced T cells were co-cultured with cell lines or primary patient tumor cells at an effector:target cell ratio of 1:2 (100,000:200,000 cells/well) and reactivity was investigated by measuring CD137 upregulation or release of IFN-γ. […] Cells were placed in round or flat bottom 96-well plates and after 18-20 h of co-incubation centrifuged at 700 g for 2 min. Supernatants were harvested for measurement of IFN-γ by ELISA, while cells were washed and stained with anti-CD137. In some experiments, transduced T cells were labeled with 0.75 µM CTV to distinguish them from target cells. Reagents for IFN-γ ELISA were acquired from BD Pharmingen or R&D Systems: mouse anti-human IFN-γ capture antibody (NIB42), Biotin Mouse Anti-Human IFN-γ detection antibody (4S.B3), streptavidin-HRP, stabilized tetramethylbenzidine and hydrogen peroxide as substrate solutions, sulfuric acid as stop solution, and recombinant human IFN-γ protein as standard. The assay was performed according to manufacturer's instructions.

[1] = target: HLA-A2 presenting the cognate NY-ESO1 peptide (human) (UniProt P78358); test: cell-based or functional assay
[2] = target: T1, PRADC1 peptide on HLA-A*02:01 (human); test: cytokine release
T1 peptide: AVDNDSFYV

[3] = target: T2, MED1 peptide on HLA-A*02:01 (human); test: cytokine release
T2 peptide: YITSDMFYV

[4] = target: T3, LZTR1 peptide on HLA-A*02:01 (human); test: cytokine release
T3 peptide: AVISDAMYI

[5] = target: T4, FLT3 D835Y peptide on HLA-A*02:01 (human); test: CD137 upregulation; transduced T cells of 4 donors against HLA-A2-transduced K562 pulsed with titrated peptide; full-length, on cells
T4 peptide: YIMSDSNYV

[6] = target: T5, FLT3 wild type peptide on HLA-A*02:01 (human); test: multimer staining
T5 peptide: DIMSDSNYV

Molecule: YITSDMFYV [peptide 12]
activation of TCR^FLT3D/Y cells (IFN-γ production) (TCR^FLT3D/Y cells): activated

Molecule: AVISDAMYI [peptide 11]
activation of TCR^FLT3D/Y cells (IFN-γ production) (TCR^FLT3D/Y cells): activated

Molecule: AVDNDSFYV [peptide 15]
activation of TCR^FLT3D/Y cells (IFN-γ production) (TCR^FLT3D/Y cells): activated

T cell activation by peptide-pulsed target cells, EC50 [1]: 5.5 nM
Molecule: NY-ESO1-specific TCR 1G4

binding result [2]: recognises
binding result [3]: recognises
binding result [4]: recognises
EC50 of peptide [5]: 0.081 nM
binding result [6]: no recognition
B1: TCR^FLT3D/Y (TCR, V domains shown)
Valpha: ELKVEQNPLFLSMQEGKNYTIYCNYSTTSDRLYWYRQDPGKSLESLFVLLSNGAVKQEGRLMASLDTKARLSTLHITAAVHDLSATYFCAVVGGSQGNLIFGKGTKLSVKP
Vbeta: DVKVTQSSRYLVKRTGEKVFLECVQDMDHENMFWYRQDPGLGLRLIYFSYDVKMKEKGDIPEGYSVSREKKERFSLILESASTNQTSMYLCASSLSPGGGYGYTFGSGTRLTVV
